For 1 sequence, PCR match/mismatch yield ratio (match/mismatch yield ratio) results are on record in patent US20040081963.

The data set has as its target Sso7d-ΔTaq (wild-type fusion) G24W (Sso7d numbering; reverts the mutant fusion to wild type) (Sulfolobus solfataricus? / Thermus aquaticus?) (UniProt P19821). The following applies: PCR yield ratio primer 57F over 57F5/6, reverse primer 732R, annealing 64 C.
UniProt P19821, sequence (P19821 whole entry, stated change not applied, the tested form may be a part): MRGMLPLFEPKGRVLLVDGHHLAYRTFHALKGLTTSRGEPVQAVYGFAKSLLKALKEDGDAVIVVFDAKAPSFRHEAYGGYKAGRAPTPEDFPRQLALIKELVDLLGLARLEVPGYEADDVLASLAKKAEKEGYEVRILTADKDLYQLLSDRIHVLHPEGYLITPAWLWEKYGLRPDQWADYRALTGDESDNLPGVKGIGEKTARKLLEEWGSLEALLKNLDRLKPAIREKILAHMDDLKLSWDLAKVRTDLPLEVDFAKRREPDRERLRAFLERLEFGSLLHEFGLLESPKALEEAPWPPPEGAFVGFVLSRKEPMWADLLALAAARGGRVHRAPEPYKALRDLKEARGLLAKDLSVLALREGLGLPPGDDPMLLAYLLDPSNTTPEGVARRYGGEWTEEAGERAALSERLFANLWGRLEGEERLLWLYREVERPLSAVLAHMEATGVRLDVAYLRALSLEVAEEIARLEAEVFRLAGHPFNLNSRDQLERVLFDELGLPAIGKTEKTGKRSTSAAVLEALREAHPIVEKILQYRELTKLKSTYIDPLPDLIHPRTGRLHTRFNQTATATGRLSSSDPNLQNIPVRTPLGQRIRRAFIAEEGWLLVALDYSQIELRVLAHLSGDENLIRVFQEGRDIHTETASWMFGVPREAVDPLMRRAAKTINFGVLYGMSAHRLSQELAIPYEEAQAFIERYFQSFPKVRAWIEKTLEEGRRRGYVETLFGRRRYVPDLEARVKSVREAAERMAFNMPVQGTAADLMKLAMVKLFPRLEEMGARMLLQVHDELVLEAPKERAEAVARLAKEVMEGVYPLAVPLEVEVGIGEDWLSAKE

With “TCCGCCCTTCTTCGTCATAACT (double strand) [mismatched primer 57F5/6 on lambda DNA]”, the PCR match/mismatch yield ratio (match/mismatch yield ratio) stood at 0.92.
